Experimental findings from article PMC11907993, “Rare but specific: 5-bp composite motifs define SMAD binding in BMP signaling” are described below.

For orientation: Kd means a measure of binding affinity in units of concentration.

The target of series [1] is T1, SMAD3 MH1 (human (Fig. 1/3 legends), UniProt P84022 10-136). The series can be described thus: EMSA; EMSA: 7.5 nM Cy5-dsDNA, 200 mM Tris pH 7.2, 100 mM NaCl, 2 mM TCEP, 15 min on ice; 6% PAGE in TG buffer, 4 °C; Hill fit, n = 2. The following applies: protein: recombinant; tags: N-terminal His tag cleaved (TEV or 3C); chain copies: 2; label: 5'-Cy5. Background: A gel shift assay detects complexes by their altered migration in electrophoresis.
T1 sequence (P84022 10-136): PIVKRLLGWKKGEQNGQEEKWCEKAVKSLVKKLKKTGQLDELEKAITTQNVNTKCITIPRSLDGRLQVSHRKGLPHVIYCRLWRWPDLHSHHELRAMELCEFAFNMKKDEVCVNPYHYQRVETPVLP

The target of series [2] is T1, SMAD3 MH1. As to the kind of experiment: EMSA; similar to sense SBE; EMSA: 7.5 nM Cy5-dsDNA, 200 mM Tris pH 7.2, 100 mM NaCl, 2 mM TCEP, 15 min on ice; 6% PAGE in TG buffer, 4 °C; Hill fit, n = 2. The note with it: protein: recombinant; tags: N-terminal His tag cleaved (TEV or 3C); chain copies: 2; label: 5'-Cy5.
Series [3] has as its target SMAD4 MH1 (human (Fig. 1 legend), UniProt Q13485 18-142). The series can be described thus: EMSA; EMSA: 7.5 nM Cy5-dsDNA, 200 mM Tris pH 7.2, 100 mM NaCl, 2 mM TCEP, 15 min on ice; 6% PAGE in TG buffer, 4 °C; Hill fit, n = 2. The note with it: protein: recombinant; tags: N-terminal His tag cleaved (TEV or 3C); label: 5'-Cy5.
Series [4] deals with T1, SMAD3 MH1. As to the kind of experiment: EMSA; Hill h = 1.80 ± 0.23; double binding; EMSA: 7.5 nM Cy5-dsDNA, 200 mM Tris pH 7.2, 100 mM NaCl, 2 mM TCEP, 15 min on ice; 6% PAGE in TG buffer, 4 °C; Hill fit, n = 2. The note with it: protein: recombinant; tags: N-terminal His tag cleaved (TEV or 3C); chain copies: 2; label: 5'-Cy5.

SMAD4 MH1, sequence (Q13485 18-142): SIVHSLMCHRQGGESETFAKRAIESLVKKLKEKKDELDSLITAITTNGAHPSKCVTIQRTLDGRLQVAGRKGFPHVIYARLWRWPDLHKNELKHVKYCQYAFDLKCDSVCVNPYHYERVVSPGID

B1: pGC-SBE/SBE heterocomposite, sense SBE (dsDNA)
DNA 1: ATATGGCGCCAACTTGTCTGATATA
DNA 2: TATATCAGACAAGTTGGCGCCATAT
As to B1, the binding result in series [1] is “binds”.

B2: pGC-SBE/SBE heterocomposite, inverted SBE (dsDNA)
DNA 1: ATATAGTCTGAACTTGGCGCCATAT
DNA 2: ATATGGCGCCAAGTTCAGACTATAT
Regarding B2, the binding result in series [2] is “binds”.

B3: pGC-SBE+ (dsDNA)
DNA 1: ATATGGCGCCATAT
DNA 2: ATATGGCGCCATAT
As to B3, the Kd in series [3] was determined as 886 ± 274 nM; in series [4], 293 ± 32 nM.

B4: npGC-SBE+ (dsDNA)
DNA 1: ATATGGCTCCATAT
DNA 2: ATATGGAGCCATAT
As to B4, the Kd in series [1] worked out at 660 ± 280 nM; in series [3] it was 1340 ± 744 nM.

B5: SBE+ (dsDNA)
DNA 1: ATATGTCTGATAT
DNA 2: ATATCAGACATAT
Take B5: the figures for the Kd in series [1] and in series [3] were 366 ± 29 nM and 919 ± 70 nM, respectively.
